Measured values taken from patent US20130288364, “ENGINEERED KINETOCHORES AND USES THEREOF” (Whitehead Institute for Biomedical Research, published 2013).

Tests used:
[1] = target: CENP-T-ΔN/CENP-W complex (Homo sapiens, UniProt Q96BT3;Q5EE01 Q96BT3:288-561,Q5EE01:1-88); test: EMSA; retains DNA binding activity; details: tags: 6xHis-CENP-T, untagged CENP-W; label: biotin
Experimental: (§1) In vitro DNA binding was assessed by Electro Mobility Shift Assay (EMSA). 500 ng of the indicated protein was incubated for 10 minutes at room temperature in binding buffer (10 mM Tris pH 7.9, 150 mM KCl, 1 mM EDTA, 4 mM DTT. 50 ng of a 20 bp biotinylated double stranded DNA probe […] corresponding to bp 21-40 of the alpha satellite DNA sequence was then added, and incubated for a further 20 minutes. Samples were then run on a 4% non denaturing arylamide gel, semi-dry transferred to nitrocellulose membrane, and blots processed using the Chemiluminescent nucleic acid detection system (Thermo) according to manufacturers instructions. Biotinylated DNA probe with detected with HRP-coupled streptavidin (Thermo).

[2] = target: CENP-T/CENP-W complex (Homo sapiens, UniProt Q96BT3;Q5EE01 Q96BT3:1-561,Q5EE01:1-88); test: EMSA; 10 mM Tris pH 7.9, 150 mM KCl, 1 mM EDTA, 4 mM DTT, room temperature; 500 ng protein, 50 ng probe; details: tags: 6xHis-CENP-T (full length), untagged CENP-W, co-expressed from pST39 in bacteria; Gene ID 80152 / 387103; label: biotin
Experimental: as §1

Chain of CENP-T/CENP-W complex (Q96BT3 whole entry, chain 1 of 2): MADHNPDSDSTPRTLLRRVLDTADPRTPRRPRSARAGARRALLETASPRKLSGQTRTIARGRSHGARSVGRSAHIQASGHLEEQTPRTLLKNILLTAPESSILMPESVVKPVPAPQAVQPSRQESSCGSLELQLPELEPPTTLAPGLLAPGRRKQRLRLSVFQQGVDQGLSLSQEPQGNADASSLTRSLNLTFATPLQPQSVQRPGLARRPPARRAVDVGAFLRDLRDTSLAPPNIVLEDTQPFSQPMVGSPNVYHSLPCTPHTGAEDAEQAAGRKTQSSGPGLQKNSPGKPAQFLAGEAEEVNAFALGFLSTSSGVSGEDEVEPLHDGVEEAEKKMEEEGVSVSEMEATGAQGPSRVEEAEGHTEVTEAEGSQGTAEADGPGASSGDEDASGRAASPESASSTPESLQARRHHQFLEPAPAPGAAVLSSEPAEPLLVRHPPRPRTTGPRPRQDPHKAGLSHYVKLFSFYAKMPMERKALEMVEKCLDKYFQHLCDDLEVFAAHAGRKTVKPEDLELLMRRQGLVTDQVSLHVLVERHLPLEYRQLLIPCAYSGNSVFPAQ
Chain of CENP-T/CENP-W complex (Q5EE01 whole entry, chain 2 of 2): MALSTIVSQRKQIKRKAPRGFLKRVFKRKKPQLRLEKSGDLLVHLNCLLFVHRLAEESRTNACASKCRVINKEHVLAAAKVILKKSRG
Chain of CENP-T-ΔN/CENP-W complex (Q96BT3 288-561, stated change not applied, chain 1 of 2): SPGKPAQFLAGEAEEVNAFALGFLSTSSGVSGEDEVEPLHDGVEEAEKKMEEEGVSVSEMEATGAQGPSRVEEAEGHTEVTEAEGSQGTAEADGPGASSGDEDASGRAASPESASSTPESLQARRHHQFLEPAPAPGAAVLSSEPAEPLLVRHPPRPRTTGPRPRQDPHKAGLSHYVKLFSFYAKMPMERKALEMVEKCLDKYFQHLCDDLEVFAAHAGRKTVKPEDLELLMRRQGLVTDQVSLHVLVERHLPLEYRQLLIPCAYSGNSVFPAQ
Chain of CENP-T-ΔN/CENP-W complex (Q5EE01 whole entry, stated change not applied, chain 2 of 2): as the sequence (Q5EE01 whole entry, chain 2 of 2) above

B1: alpha-satellite 20 bp probe (bp 21-40) (dsDNA)
DNA 1: CCTTTGAGGCCTTCGTTGGA
DNA 2: TCCAACGAAGGCCTCAAAGG
B1: binds [1]; binds [2].
